This note sets out measurements from patent US20130052670A1 (MERCK, published 2013).

For assay [1], the target named is T1, Aβ oligomers (ADDLs, amyloid-β derived diffusible ligands) prepared from Aβ42 (UniProt P05067 672-713).
T1 construct: domain: amyloid β peptide 1-42; Heterogeneous mixture of multimers; number of chains not defined; Concentrations are calculated on the Aβ monomer molecular weight (MW 4513); also called ADDL species of Aβ oligomers; Aβ oligomer standards
Briefly: one-sided ELISA on coated plates. As to the method:
(§1) Next day, plates were washed five times with PBS+0.05% Tween-20 and blocked overnight with Casein blocking buffer (Thermo Scientific, Waltham, Mass.) and 0.05% Tween-20. […] After two hours at room temperature incubation, the plates were washed and alkaline phosphatase conjugated anti-human IgG (ThermoScientific, Waltham, Mass.) was added at 0.08 μg/ml. After incubation for 45 minutes at room temperature, the plates were washed and Tropix CDP star (Applied Biosystems, Foster City, Calif.) was added. Luminescence was detected after 30 minutes on an EnVision® plate reader (PerkinElmer, Waltham, Mass.). Curve fits were completed using GraphPad Prism (GraphPad Software, Inc., San Diego, Calif.) software.
(In general: ELISA stands for enzyme-linked immunosorbent assay.)

For assay [2], the target named is T1, Aβ oligomers (ADDLs, amyloid-β derived …). As to the kind of experiment: one-sided ELISA, plate coated with Aβ oligomers (50 pmol/well), 19.3 titrated, anti-human IgG-AP, luminescence. The protocol:
as §1

Assay [3] concerns the target T2, Aβ40 monomer (amyloid β peptide 1-40) (UniProt P05067 672-711).
T2 construct: domain: amyloid β peptide 1-40; also called monomeric Aβ40; Aβ monomer
As to the kind of experiment: one-sided ELISA, plate coated with Aβ40 monomer (100 pmol/well), 19.3 titrated, anti-human IgG-AP, luminescence. The protocol:
as §1

T1 sequence (P05067 672-713 limits assumed): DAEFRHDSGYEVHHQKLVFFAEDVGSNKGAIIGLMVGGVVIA
T2 sequence (P05067 672-711 limits assumed): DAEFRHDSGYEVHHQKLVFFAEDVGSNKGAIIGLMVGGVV

B1: anti-Aβ oligomer antibody 19.3 (antibody, V domains shown)
VH: EVQLVESGGGLVQPGGSLRLSCAASGFTFSSFGMHWVRQAPGKGLEWVAYISRGSSTIYYADTVKGRFTISRDNAKNSLYLQMNSLRAEDTAVYYCARGITTALDYWGQGTLVTVSS
VL: DVVMTQSPLSLPVTPGEPASISCRSSQSIVHSNGNTYLEWYLQKPGQSPQLLIYKASNRFSGVPDRFSGSGSGTDFTLKISRVEAEDVGVYYCFQGSRLGPSFGQGTKLEIK
notes: In the sandwich assays it was coated on plates or covalently coupled to paramagnetic micro-particle beads; not shown: human immunoglobulin kappa light chain constant region
In the case of B1, in assay [1], the “fold greater potency than for Aβ40 monomer” value is roughly 3.7 fold. Moreover, the EC50 (usually the concentration at which the effect is half-maximal) was determined as 1.6 nM in assay [2] and 4.3 nM in assay [3].
